Measurements taken from patent US20260049138A1 (Chugai, published 2026).
Residue numbers refer to the chain shown, from its start. In names and notes the source's numbering stands.

B1: CE115HA000 G98Y one-arm antibody (antibody, human IgG1, kappa, L234A L235A, N297A, name in Kabat numbering)
heavy: QVQLVESGGGVVQPGRSLRLSCAASGFTFSNAWMHWVRQAPGKGLEWVAQIKAKSNNYATYYAESVKGRFTISRDDSKNSLYLQMNSLKTEDTAVYYCRYVHYYAYYGVDAWGQGTTVTVSSASTKGPSVFPLAPSSKSTSGGTAALGCLVKDYFPEPVTVSWNSGALTSGVHTFPAVLQSSGLYSLSSVVTVPSSSLGTQTYICNVNHKPSNTKVDKKVEPKSCDKTHTCPPCPAPEAAGGPSVFLFPPKPKDTLMISRTPEVTCVVVDVSHEDPEVKFNWYVDGVEVHNAKTKPREEQYASTYRVVSVLTVLHQDWLNGKEYKCKVSNKALPAPIEKTISKAKGQPREPQVYTLPPSRCELTKNQVSLSCAVKGFYPSDIAVEWESNGQPENNYKTTPPVLDSDGSFFLVSKLTVDKSRWQQGNVFSCSVMHEALHNHYTQKSLSLSPDYKDDDDK
chain: EPKSSDKTHTCPPCPAPELLGGPSVFLFPPKPKDTLMISRTPEVTCVVVDVSHEDPEVKFNWYVDGVEVHNAKTKPREEQYNSTYRVVSVLTVLHQDWLNGKEYKCKVSNKALPAPIEKTISKAKGQPREPQVCTLPPSRDELTKNQVSLWCLVKGFYPSDIAVEWESNGQPENNYKTTPPVLDSDGSFFLYSKLTVDKSRWQQGNVFSCSVMHEALHNRYTQKSLSLSP
light: DIVMTQSPLSLPVTPGEPASISCRSSQSLVHSNRNTYLHWYQQKPGQAPRLLIYKVSNRFSGVPDRFSGSGSGTDFTLKISRVEAEDVGVYYCGQGTQVPYTFGQGTKLEIKRTVAAPSVFIFPPSDEQLKSGTASVVCLLNNFYPREAKVQWKVDNALQSGNSQESVTEQDSKDSTYSLSSTLTLSKADYEKHKVYACEVTHQGLSSPVTKSFNRGEC
B2: CE115HA000 H96L one-arm antibody (antibody, human IgG1, kappa, L234A L235A, N297A, name in Kabat numbering)
heavy: B1 heavy with H102L, Y104G
chain: B1 chain
light: B1 light
B3: CE115HA000 H96S one-arm antibody (antibody, human IgG1, kappa, L234A L235A, N297A, name in Kabat numbering)
heavy: B1 heavy with H102S, Y104G
chain: B1 chain
light: B1 light
B4: CE115HA000 G100bY one-arm antibody (antibody, human IgG1, kappa, L234A L235A, N297A, name in Kabat numbering)
heavy: B1 heavy with Y104G, G108Y
chain: B1 chain
light: B1 light
B5: CE115HA000 G100bD one-arm antibody (antibody, human IgG1, kappa, L234A L235A, N297A, name in Kabat numbering)
heavy: B1 heavy with Y104G, G108D
chain: B1 chain
light: B1 light
B6: CE115HA000 H35F one-arm antibody (antibody, human IgG1, kappa, L234A L235A, N297A, name in Kabat numbering)
heavy: B1 heavy with H35F, Y104G
chain: B1 chain
light: B1 light
B7: CE115HA000 H96K one-arm antibody (antibody, human IgG1, kappa, L234A L235A, N297A, name in Kabat numbering)
heavy: B1 heavy with H102K, Y104G
chain: B1 chain
light: B1 light
B8: CE115HA000 H35Y one-arm antibody (antibody, human IgG1, kappa, L234A L235A, N297A, name in Kabat numbering)
heavy: B1 heavy with H35Y, Y104G
chain: B1 chain
light: B1 light
B9: CE115HA000 G100bE one-arm antibody (antibody, human IgG1, kappa, L234A L235A, N297A, name in Kabat numbering)
heavy: B1 heavy with Y104G, G108E
chain: B1 chain
light: B1 light
B10: CE115HA000 G100bF one-arm antibody (antibody, human IgG1, kappa, L234A L235A, N297A, name in Kabat numbering)
heavy: B1 heavy with Y104G, G108F
chain: B1 chain
light: B1 light
B11: CE115HA000 H96G one-arm antibody (antibody, human IgG1, kappa, L234A L235A, N297A, name in Kabat numbering)
heavy: B1 heavy with H102G, Y104G
chain: B1 chain
light: B1 light
B12: CE115HA000 H35D one-arm antibody (antibody, human IgG1, kappa, L234A L235A, N297A, name in Kabat numbering)
heavy: B1 heavy with H35D, Y104G
chain: B1 chain
light: B1 light
B13: CE115HA000 H35V one-arm antibody (antibody, human IgG1, kappa, L234A L235A, N297A, name in Kabat numbering)
heavy: B1 heavy with H35V, Y104G
chain: B1 chain
light: B1 light
B14: CE115HA000 H96Y one-arm antibody (antibody, human IgG1, kappa, L234A L235A, N297A, name in Kabat numbering)
heavy: B1 heavy with H102Y, Y104G
chain: B1 chain
light: B1 light
B15: CE115HA000 H96P one-arm antibody (antibody, human IgG1, kappa, L234A L235A, N297A, name in Kabat numbering)
heavy: B1 heavy with H102P, Y104G
chain: B1 chain
light: B1 light
B16: CE115HA000 G100bS one-arm antibody (antibody, human IgG1, kappa, L234A L235A, N297A, name in Kabat numbering)
heavy: B1 heavy with Y104G, G108S
chain: B1 chain
light: B1 light
B17: CE115HA000 H35K one-arm antibody (antibody, human IgG1, kappa, L234A L235A, N297A, name in Kabat numbering)
heavy: B1 heavy with H35K, Y104G
chain: B1 chain
light: B1 light
B18: CE115HA000 G100bL one-arm antibody (antibody, human IgG1, kappa, L234A L235A, N297A, name in Kabat numbering)
heavy: B1 heavy with Y104G, G108L
chain: B1 chain
light: B1 light
B19: CE115HA000 H35I one-arm antibody (antibody, human IgG1, kappa, L234A L235A, N297A, name in Kabat numbering)
heavy: B1 heavy with H35I, Y104G
chain: B1 chain
light: B1 light
B20: CE115HA000 H35S one-arm antibody (antibody, human IgG1, kappa, L234A L235A, N297A, name in Kabat numbering)
heavy: B1 heavy with H35S, Y104G
chain: B1 chain
light: B1 light
B21: CE115HA000 H35M one-arm antibody (antibody, human IgG1, kappa, L234A L235A, N297A, name in Kabat numbering)
heavy: B1 heavy with H35M, Y104G
chain: B1 chain
light: B1 light
B22: CE115HA000 H96Q one-arm antibody (antibody, human IgG1, kappa, L234A L235A, N297A, name in Kabat numbering)
heavy: B1 heavy with H102Q, Y104G
chain: B1 chain
light: B1 light
B23: CE115HA000 H35L one-arm antibody (antibody, human IgG1, kappa, L234A L235A, N297A, name in Kabat numbering)
heavy: B1 heavy with H35L, Y104G
chain: B1 chain
light: B1 light
B24: CE115HA000 H96R one-arm antibody (antibody, human IgG1, kappa, L234A L235A, N297A, name in Kabat numbering)
heavy: B1 heavy with H102R, Y104G
chain: B1 chain
light: B1 light
B25: CE115HA000 H35W one-arm antibody (antibody, human IgG1, kappa, L234A L235A, N297A, name in Kabat numbering)
heavy: B1 heavy with H35W, Y104G
chain: B1 chain
light: B1 light
B26: CE115HA000 H35R one-arm antibody (antibody, human IgG1, kappa, L234A L235A, N297A, name in Kabat numbering)
heavy: B1 heavy with H35R, Y104G
chain: B1 chain
light: B1 light
B27: CE115HA000 H35E one-arm antibody (antibody, human IgG1, kappa, L234A L235A, N297A, name in Kabat numbering)
heavy: B1 heavy with H35E, Y104G
chain: B1 chain
light: B1 light
B28: CE115HA000 H35T one-arm antibody (antibody, human IgG1, kappa, L234A L235A, N297A, name in Kabat numbering)
heavy: B1 heavy with H35T, Y104G
chain: B1 chain
light: B1 light
B29: CE115HA000 H35G one-arm antibody (antibody, human IgG1, kappa, L234A L235A, N297A, name in Kabat numbering)
heavy: B1 heavy with H35G, Y104G
chain: B1 chain
light: B1 light
B30: CE115HA000 H35Q one-arm antibody (antibody, human IgG1, kappa, L234A L235A, N297A, name in Kabat numbering)
heavy: B1 heavy with H35Q, Y104G
chain: B1 chain
light: B1 light
B31: CE115HA000 H35N one-arm antibody (antibody, human IgG1, kappa, L234A L235A, N297A, name in Kabat numbering)
heavy: B1 heavy with H35N, Y104G
chain: B1 chain
light: B1 light

Each binder was assayed against T1, CD3ε homodimer protein (human, UniProt P07766 23-126, limits assumed, sulfo-tag or biotin label in the ECL assays; amine-coupled to the chip in SPR) (assay: SPR Biacore T200; CD3ε homodimer on CM4 chip;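 further: Single-residue variant antibodies injected as analyte over CD3ε homodimer immobilized by amine coupling, run at 25 °C in HBS-EP+ buffer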).
T1 construct: also called human CD3ε homodimer protein; CD3 (CD3ε)
T1 sequence (P07766 23-126 limits assumed): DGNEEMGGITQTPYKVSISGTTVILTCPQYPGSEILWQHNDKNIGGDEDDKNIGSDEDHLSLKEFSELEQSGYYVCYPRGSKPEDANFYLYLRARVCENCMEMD

Point of comparison: B3, “ratio of amounts bound Z=Y/X (altered form / CE115HA000)” value 0.44. Against it:
- B1 — higher, 2.22
- B2 — lower, 0.14
- B4 — lower, 0.23
- B5 — lower, 0.27
- B6 — lower, 0.21
- B7 — lower, 0.35
- B8 — lower, 0.16
- B9 — lower, 0.26
- B10 — lower, 0.3
- B11 — lower, 0.43
- B12 — lower, 0.2
- B13 — lower, 0.22
- B14 — lower, 0.17
- B15 — lower, 0.12
- B16 — higher, 0.52
- B17 — lower, 0.15
- B18 — lower, 0.27
- B19 — lower, 0.12
- B20 — lower, 0.23
- B21 — lower, 0.29
- B22 — lower, 0.42
- B23 — lower, 0.11
- B24 — higher, 0.46
- B25 — lower, 0.22
- B26 — lower, 0.14
- B27 — lower, 0.19
- B28 — lower, 0.26
- B29 — lower, 0.22
- B30 — lower, 0.13
- B31 — lower, 0.35
